This is an account of results in paper PMC2945410.

The subject of data set [1] is O=[N+]([O-])c1ccc(OP(=O)(O)Oc2ccc([N+](=O)[O-])cc2)cc1. Briefly: purified protein. In kind it is biochemical, Thiobacillus denitrificans. The settings on record: standard assay: 50 mM HEPES pH 7.5, 2 mM MnCl2.
For data set [2] the test system is unchanged. Briefly: purified protein. The settings on record: standard assay: 50 mM HEPES pH 7.5, 2 mM MnCl2. In kind it is biochemical, Shigella flexneri.

Turning to “TBD1265 EAL domain (Thiobacillus denitrificans ATCC 25259)”, in data set [1], the Km (usually the concentration of substrate that gives half-maximal velocity) is reported as 20.0 ± 1.3 mM; the Vmax (usually the rate approached at saturating substrate) was 0.1 µmol/min/mg; the kcat – broadly, the number of substrate molecules converted per active site and unit of time at saturation – stood at 0.06 s⁻¹; the kcat/Km – broadly, the turnover number divided by the Michaelis constant – was 3 M⁻¹ s⁻¹.
As for “SFV_3559 EAL domain (YhjK) (Shigella flexneri)”, in data set [2], the Km was determined as 14.1 ± 4.2 mM, the Vmax is 2.1 µmol/min/mg, the kcat turned out to be 8 s⁻¹ and the kcat/Km was 600 M⁻¹ s⁻¹.
